B1: MeaB from Methylobacterium extorquens (natural protein, UniProt Q8RPA0 1-329, looked up)
chain: MSATLPDMDTLRERLLAGDRAALARAITLAESRRADHRAAVRDLIDAVLPQTGRAIRVGITGVPGVGKSTTIDALGSLLTAAGHKVAVLAVDPSSTRTGGSILGDKTRMARLAIDRNAFIRPSPSSGTLGGVAAKTRETMLLCEAAGFDVILVETVGVGQSETAVADLTDFFLVLMLPGAGDELQGIKKGILELADMIAVNKADDGDGERRASAAASEYRAALRILTPPSATWTPPVVTISGLHGKGLDSLWSRIEGHRSKLTATGEIAGKRREQDVKWMWALVHERLHQRLVGSAEVRQATAEAERAVAGGEHSPAAGADAIATLIGL
notes: MeaB, G-protein chaperone of methylmalonyl-CoA mutase, Methylobacterium extorquens, WP_003597297.1; 329 residues (Met1 to Leu329 of 329 named in the model of chain B); Synthetic gene in pET28a at NdeI and XhoI; also called G-protein metallochaperone MeaB; source: E. coli Bl21 T7 Express, purified (Ni-NTA, Superdex 200 SEC)
B2: Cbl-binding domain of the alpha subunit of Methylobacterium extorquens methylmalonyl-CoA mutase (domain or fragment, UniProt C5AV67 545-712, looked up)
chain: RAQIRSISGVYKREVGGMSPVVEKVRGLVEAFEENDGRRPRILVAKMGQDGHDRGQKVIASAFADLGFDVDIGPLFATPDEAARQAVENDVHIVGVSSLAAGHLTLVPELKAALKQEGRDDVMIVVGGVIPPGDYDALYAAGASAIFPPGTVIAEAAVNLLGELNTRL
notes: alpha subunit has 712 residues; Two constructs were made (N-terminal HisTag, of low solubility; C-terminal HisTag in pET28a at NcoI and XhoI); The crystal holds the C-terminal HisTag form (residues 713 to 714 of the tag modelled in chain C); the same form is surmised for the SEC and GTPase experiments; also called MeMCMcbl; MCMcbl; source: E. coli Bl21 T7 Express, purified (Ni-NTA, Superdex75 …)

Experiments:
[1] = molecular target: the molecule itself; assay: SEC; analytical Superdex200 Increase 10/300 GL; each protein alone (50 µM MeaB); apparent molecular weights against gel filtration standards; 50 mM HEPES pH 7.5, 500 mM NaCl
[2] = molecular target: B1; assay: cell-based or functional assay
[3] = molecular target: B1; assay: SEC; analytical Superdex200 Increase 10/300 GL; 50 µM MeaB and 100 µM MeMCMcbl preincubated with 500 µM GMPPCP and 1 mM MgCl2; 50 mM HEPES pH 7.5, 500 mM NaCl; peaks identified by SDS-PAGE; conditions: both partners purified

Binder | stoichiometry N [1] | GTPase activity of MeaB (2 µM) with MeMCMcbl (4 µM), 500 µM GTP: inorganic phosphate produced, against MeaB alone [2] | stoichiometry N [3]
B1 | 2 | – | –
B2 | 2 | 25 fold | 1 MeMCMcbl dimer per MeaB dimer

Source: paper PMC9974510, “Structure of metallochaperone in complex with the cobalamin-binding domain of its target mutase provides insight into cofactor delivery” (Proceedings of the National Academy of Sciences of the …, 2023)
